Test results from patent publication US8497083B2, “Fructosyl amino acid oxidase” (priority 2009, dated 2013).

Assays:
[1] = biological target: T1, fructosyl amino acid oxidase from Phaeosphaeria nodorum (PnFPOX, SEQ ID NO: 1) variant N56A (Parastagonospora nodorum, UniProt Q0UIL6, N56A); assay: Dehydrogenase activity kinetics (mPMS/DCIP), PnFPOX N56A mutant; format: biochemical; conditions: purified enzyme, 25° C., pH 7.0
Excerpt: (§1) As used herein, “dehydrogenase activity” is an enzymatic activity (Vmax) of the fructosyl amino acid oxidase to catalyze oxidation of fructosyl amino acid to generate 2-keto-D-glucose and the corresponding amino acid while utilizing an electron mediator other than oxygen as an electron acceptor. The dehydrogenase activity may be assayed by measuring the amount of electrons transferred to the mediator using, for example, one of mPMS/DCIP (1-methoxy-5-methylphenazinium methylsulfate/2,6-dichloroindophenol), cPES (trifluoro-acetate-1-(3-carboxy-propoxy)-5-ethyl-phenanzinium, NA BM31—1144 (N,N-bis-(hydroxyethyl)-3-methoxynitrosoaniline hydrochloride, NA BM31—1008 (N,N-bis-hydroxyethyl-4-nitrosoaniline) and N—N-4-dimethyl-nitrosoaniline.
(§2) As used herein in the context of the relative or quantitative activity, the dehydrogenase activity is specifically defined to be the mole amount of the substrate (fructosyl amino acid) oxidized per unit time measured by the amount of electrons transferred to the mediator at 25° C. in 10 mM PPB (pH 7.0), 0.6 mM DCIP, and 6 mM methoxy PMS (mPMS).
(§3) Escherichia coli BL21 (DE3) cells harboring expression vectors of N1-1 FAOD (SEQ ID NO: 2) mutants were grown in 150 ml of LB medium containing 50 μg/ml kanamycin at 37° C. After reaching an A660 value of 0.6, 0.3 mM IPTG was added and incubated at 25° C. for an additional 5 hours. The cells were collected by centrifugation and washed twice with 0.85% NaCl.aq. Then, the cells were resuspended in 10 mM Potassium Phosphate Buffer (PPB) pH 7.0 and lysed by ultrasonic homogenizer. The lysate was centrifuged at 10,000×g, 4° C. for 10 min, and the supernatant was centrifuged at 50,000 rpm, 4° C. for 60 min, then the supernatant was dialyzed against 10 mM PPB (pH 7.0). The oxidase activity was assayed at 25° C. in 10 mM PPB, pH 7.0, 1.5 mM TODB, 2 U/ml horseradish peroxidase (POD), and 1.5 mM 4-aminoantipyrine (4AA) in the presence of substrates (0.2, 0.5, 0.75, 1, 2, 5 mM f-^αVal […]). The formation of quinoneimine dye was measured spectrophotometrically at 546 nm. The dehydrogenase activity was assayed at 25° C. in 10 mM PPB (pH 7.0), 0.6 mM DCIP, and 6 mM methoxy PMS (mPMS) in the presence of substrates (0.2, 0.5, 1, 2, 5 mM f-^αVal or 5 mM f-^αVal-His).
(§4) Mutations were introduced using site-directed mutagenesis as in Example 1, and BL21 (DE3) cells were transformed with an expression vector containing wild-type or mutant PnFPOX (SEQ ID NO: 1). The cultured cells were resuspended in 10 mM PPB, pH 7.0, and lysed by sonication. The lysate was centrifuged at 10,000 g at 4° C. for 20 min, and the supernatant was centrifuged at 50,000 rpm at 4° C. for 60 min. The oxidase and dehydrogenase activities were measured as in Example 1. […]

[2] = biological target: T1, fructosyl amino acid oxidase from Phaeosphaeria nodorum (PnFPOX, SEQ ID NO: 1) variant N56A; assay: Oxidase activity kinetics (4AA/TODB/POD), PnFPOX N56A mutant; format: biochemical; conditions: purified enzyme, 25° C., pH 7.0
Excerpt: (§5) As used herein “oxidase activity” is an enzymatic activity (Vmax) of the fructosyl amino acid oxidase to catalyze oxidation of fructosyl amino acid to generate 2-keto-D-glucose and the corresponding amino acid while utilizing oxygen as an electron acceptor. The oxidase activity may be assayed by measuring the amount of generated H2O2 by any methods known in the art, including by way of non-limiting example, reagents for H2O2 detection such as […] (4-aminoantipyrine/N,N-Bis(4-sulfobutyl)-3-methylaniline disodium salt/horseradish peroxidase) or by Pt electrode. As used herein in the context of the relative or quantitative activity, the oxidase activity is specifically defined to be the mole amount of the substrate (fructosyl amino acid) oxidized per unit time measured by the amount of generated H2O2 at 25° C. in 10 mM PPB, pH 7.0, 1.5 mM TODB, 2 U/ml horseradish peroxidase (POD), and 1.5 mM 4-aminoantipyrine (4AA). The formation of quinoneimine dye may be measured spectrophotometrically at 546 nm.
as §3
(§6) Mutations were introduced using site-directed mutagenesis as in Example 1, and BL21 (DE3) cells were transformed with an expression vector containing wild-type or mutant PnFPOX (SEQ ID NO: 1). The cultured cells were resuspended in 10 mM PPB, pH 7.0, and lysed by sonication. The lysate was centrifuged at 10,000 g at 4° C. for 20 min, and the supernatant was centrifuged at 50,000 rpm at 4° C. for 60 min. The oxidase and dehydrogenase activities were measured as in Example 1.
(§7) BL21 (DE3) transformed with pEPN (pET28a-PnFPOX)-N56A was grown aerobically at 37° C. in LB medium (2 l) containing 50 μg kanamycin ml^−1. […]

[3] = test system: CC(C)[C@H](NCC1(O)OC[C@@H](O)[C@@H](O)[C@@H]1O)C(=O)O; assay: Dehydrogenase activity kinetics (mPMS/DCIP), PnFPOX N56A mutant; format: biochemical, Phaeosphaeria nodorum; conditions: other: purified enzyme, 25° C., pH 7.0
Excerpt: as §1, §2, §3, §4

[4] = test system: CC(C)[C@H](NCC1(O)OC[C@@H](O)[C@@H](O)[C@@H]1O)C(=O)N[C@@H](Cc1c[nH]cn1)C(=O)O; assay: as above; format: biochemical, Phaeosphaeria nodorum; conditions: other: purified enzyme, 25° C., pH 7.0
Excerpt: as §1, §2, §3, §4

[5] = test system: CC(C)[C@H](NCC1(O)OC[C@@H](O)[C@@H](O)[C@@H]1O)C(=O)O; assay: Oxidase activity kinetics (4AA/TODB/POD), PnFPOX N56A mutant; format: biochemical, Phaeosphaeria nodorum; conditions: other: purified enzyme, 25° C., pH 7.0
Excerpt: as §5, §3, §6, §7

[6] = test system: CC(C)[C@H](NCC1(O)OC[C@@H](O)[C@@H](O)[C@@H]1O)C(=O)N[C@@H](Cc1c[nH]cn1)C(=O)O; assay: as above; format: biochemical, Phaeosphaeria nodorum; conditions: other: purified enzyme, 25° C., pH 7.0
Excerpt: as §5, §3, §6, §7

[7] = test system: CC(C)[C@H](NCC1(O)OC[C@@H](O)[C@@H](O)[C@@H]1O)C(=O)O; assay: Oxidase activity kinetics (4AA/TODB/POD), PnFPOX wild type; format: biochemical, Phaeosphaeria nodorum; conditions: other: 4AA/TODB/POD, 25° C., pH 7.0
Excerpt: as §5, §3, §6
(§8) The oxidase and dehydrogenase activities of the N56A mutant FAOD were measured. […]

[8] = test system: CC(C)[C@H](NCC1(O)OC[C@@H](O)[C@@H](O)[C@@H]1O)C(=O)N[C@@H](Cc1c[nH]cn1)C(=O)O; assay: as above; format: biochemical, Phaeosphaeria nodorum; conditions: other: 4AA/TODB/POD, 25° C., pH 7.0
Excerpt: as §5, §3, §6, §8

[9] = test system: CC(C)[C@H](NCC1(O)OC[C@@H](O)[C@@H](O)[C@@H]1O)C(=O)O; assay: Dehydrogenase activity kinetics (mPMS/DCIP), PnFPOX wild type; format: biochemical, Phaeosphaeria nodorum; conditions: other: mPMS/DCIP, 25° C., pH 7.0
Excerpt: As used herein, “dehydrogenase activity” is an enzymatic activity (Vmax) of the fructosyl amino acid oxidase to catalyze oxidation of fructosyl amino acid to generate 2-keto-D-glucose and the corresponding amino acid while utilizing an electron mediator other than oxygen as an electron acceptor. […]
as §2
Escherichia coli BL21 (DE3) cells harboring expression vectors of N1-1 FAOD (SEQ ID NO: 2) mutants were grown in 150 ml of LB medium containing 50 μg/ml kanamycin at 37° C. […] The formation of quinoneimine dye was measured spectrophotometrically at 546 nm. […]
Mutations were introduced using site-directed mutagenesis as in Example 1, and BL21 (DE3) cells were transformed with an expression vector containing wild-type or mutant PnFPOX (SEQ ID NO: 1). […] The oxidase and dehydrogenase activities were measured as in Example 1.
as §8

[10] = substrate: CC(C)[C@H](NCC1(O)OC[C@@H](O)[C@@H](O)[C@@H]1O)C(=O)O; assay: Oxidase activity kinetics (4AA/TODB/POD), N1-1 FAOD wild type; format: biochemical, Pichia sp. N1-1; conditions: 25° C., pH 7.0
Excerpt: as §5, §3
(§9) The recombinant FAOD was purified as follows. First, a water-soluble fraction containing the enzyme was prepared from recombinant Escherichia coli. E. coli containing the expression vector was cultured in 7 L LB medium (37° C., in 10 L fermenter, 50 μg/ml ampicillin), then the expression was induced with IPTG (final concentration: 0.3 mM) at about OD660=0.7 and culture temperature was lowered to 30° C. The cells were suspended in 100 mM PPb (pH 7.0) and disrupted four times using a French press. […]

[11] = substrate: CC(C)[C@H](NCC1(O)OC[C@@H](O)[C@@H](O)[C@@H]1O)C(=O)O; assay: Dehydrogenase activity kinetics (mPMS/DCIP), N1-1 FAOD wild type; format: biochemical, Pichia sp. N1-1; conditions: 25° C., pH 7.0
Excerpt: as §1, §2, §3, §9

[12] = substrate: CC(C)[C@H](NCC1(O)OC[C@@H](O)[C@@H](O)[C@@H]1O)C(=O)O; assay: Oxidase activity kinetics (4AA/TODB/POD), N1-1 FAOD N47A mutant; format: biochemical, Pichia sp. N1-1; conditions: 25° C., pH 7.0
Excerpt: as §5, §3, §9

[13] = substrate: CC(C)[C@H](NCC1(O)OC[C@@H](O)[C@@H](O)[C@@H]1O)C(=O)O; assay: Dehydrogenase activity kinetics (mPMS/DCIP), N1-1 FAOD N47A mutant; format: biochemical, Pichia sp. N1-1; conditions: 25° C., pH 7.0
Excerpt: as §1, §2, §3, §9

T1 sequence (Q0UIL6 whole entry N56A): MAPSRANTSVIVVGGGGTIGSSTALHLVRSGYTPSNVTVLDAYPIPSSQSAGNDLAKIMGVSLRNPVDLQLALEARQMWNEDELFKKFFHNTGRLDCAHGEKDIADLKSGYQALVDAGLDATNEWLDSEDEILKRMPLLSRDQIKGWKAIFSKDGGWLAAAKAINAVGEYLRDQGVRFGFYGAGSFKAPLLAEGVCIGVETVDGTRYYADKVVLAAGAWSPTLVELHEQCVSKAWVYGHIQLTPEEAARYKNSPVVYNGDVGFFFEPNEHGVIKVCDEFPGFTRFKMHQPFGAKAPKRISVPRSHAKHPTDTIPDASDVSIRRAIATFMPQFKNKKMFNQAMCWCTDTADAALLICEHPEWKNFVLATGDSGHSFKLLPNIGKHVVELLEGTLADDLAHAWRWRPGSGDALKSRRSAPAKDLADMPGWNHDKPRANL

Molecule: CC(C)[C@H](NCC1(O)OC[C@@H](O)[C@@H](O)[C@@H]1O)C(=O)N[C@@H](Cc1cnc[nH]1)C(=O)O (stereo partly shown) [f-αValHis, fructosyl valyl histidine]
- Vmax [1]: 3.40 U/mg
- Vmax [2]: 1.90 U/mg

Molecule: fructosyl amino acid oxidase from Phaeosphaeria nodorum (PnFPOX, SEQ ID NO: 1) variant N56A (Parastagonospora nodorum SN15; N56A)
- Km [3]: 1600 µM
- Km [4]: 74 µM
- Km [5]: 86 µM
- Km [6]: 92 µM

Molecule: fructosyl amino acid oxidase from Phaeosphaeria nodorum (PnFPOX), wild type, SEQ ID NO: 1 (Parastagonospora nodorum SN15)
- Km [7]: 640 µM
- Vmax [7]: 27.6 U/mg
- Km [8]: 200 µM
- Vmax [8]: 2.97 U/mg
- Km [9]: 1100 µM
- Vmax [9]: 28.0 U/mg

B1: fructosyl amino acid oxidase from Pichia sp. N1-1 (N1-1 FAOD), wild type, SEQ ID NO: 2 (Pichia sp. N1-1) (protein)
chain: MESIIIVGAGTFGLSTALQLARDGYKNIKCFDKFPVPSEIAAGNDSNKIFHYDYVAPLAKPNSKERLSLEALHLWKTDPVYKPYYHPVGFILAASSDAPLLHDKEYYEELQKNGLRNYRYISTPEEFREYLPILKGPLPNWRGYVLDGDNGWLHARDSLKSAYEECKRLGVEFVFGDDGEIVELLNENGKLTGIRARSGAIFSAQKYVLSSGANAVTLLNFQRQLEGKCFTLAHFKVTDEEAKAFKSLPVLFNAEKGFFFEADENNEIKICNEYPGFTHTNESGESIPLYRMEIPLESALEIRQYLKETMPQFADRPFTKTRICWCTDSPDMQLILCTHPEYTNLIVASGDSGNSFKIMPIIGKYVSKVVTKGDKGLDPEDKECWKWRPETWDKRGQVRWGGRYRVADLNEIEEWVSVENPTPHKLE
notes: 427 aa
- Km ([10]; other: crude preparation): 2640 µM
- Vmax ([10]; other: crude preparation): 0.71 U/mg
- Km ([10]; other: purified enzyme): 4800 µM
- Vmax ([10]; other: purified enzyme): 9.3 U/mg
- Km ([11]; other: crude preparation): 3220 µM
- Vmax ([11]; other: crude preparation): 0.60 U/mg
- Km ([11]; other: purified enzyme): 4600 µM
- Vmax ([11]; other: purified enzyme): 9.8 U/mg

B2: fructosyl amino acid oxidase from Pichia sp. N1-1 (N1-1 FAOD, SEQ ID NO: 2) variant N47A (Pichia sp. N1-1; N47A) (protein)
chain: MESIIIVGAGTFGLSTALQLARDGYKNIKCFDKFPVPSEIAAGNDSAKIFHYDYVAPLAKPNSKERLSLEALHLWKTDPVYKPYYHPVGFILAASSDAPLLHDKEYYEELQKNGLRNYRYISTPEEFREYLPILKGPLPNWRGYVLDGDNGWLHARDSLKSAYEECKRLGVEFVFGDDGEIVELLNENGKLTGIRARSGAIFSAQKYVLSSGANAVTLLNFQRQLEGKCFTLAHFKVTDEEAKAFKSLPVLFNAEKGFFFEADENNEIKICNEYPGFTHTNESGESIPLYRMEIPLESALEIRQYLKETMPQFADRPFTKTRICWCTDSPDMQLILCTHPEYTNLIVASGDSGNSFKIMPIIGKYVSKVVTKGDKGLDPEDKECWKWRPETWDKRGQVRWGGRYRVADLNEIEEWVSVENPTPHKLE
notes: crude and purified
- Km ([12]; other: crude preparation): 1420 µM
- Vmax ([12]; other: crude preparation): 0.11 U/mg
- Km ([12]; other: purified enzyme): 2200 µM
- Vmax ([12]; other: purified enzyme): 1.4 U/mg
- Km ([13]; other: crude preparation): 9130 µM
- Vmax ([13]; other: crude preparation): 0.82 U/mg
- Km ([13]; other: purified enzyme): 6200 µM
- Vmax ([13]; other: purified enzyme): 6.0 U/mg
